This note sets out measurements from the supplement of paper PMC10126150.

± gives the standard deviation of the averaged measurements.

For this data set, the system named is ATP. The data set is described as follows: switch fluorescence ratio, 500 uM ATP over buffer (Cy3 cluster intensity, sum of 5 cycles each) (fold (ratio)); higher = stronger signal-on switching upon ATP binding; sequences stand for … in TCGTCGGCAGCGTCAGATGTGTATAAGAGACAGTTTTTTTTTTTTTTTTTTTTTTTTT…TC. The following applies: aptamer strand: ATP DNA aptamer (quencher-CACCTGGGGGAGTATTGCGGAGGAAGG + anchor), 100 nM annealed; ATP concentration: 500 uM. The procedure, abridged: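 Switching-strand clusters labelled with Cy3 on a modified Illumina MiSeq flow-cell were annealed to 100 nM quencher-labelled ATP aptamer, imaged in selection buffer, and re-imaged after 15 min with 500 uM ATP at 22 °C. This was done over five cycles with NaOH stripping and re-annealing in between. The fluorescence ratio is summed target-cycle over summed buffer-cycle Cy3 intensity per cluster, averaged per switch-domain sequence, excluding clusters outside 100-1000 RFU.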
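Note: ATP exposure 15 min at 22 °C before imaging.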

Regarding GGACGTATTA, the switch fluorescence ratio was found to be 1.03 ± 0.051. For GGACGTGGGG the value was 0.953 ± 0.069; for GGACGTGGTA, 1.03 ± 0.028; for GGACTAGATG, 0.978 ± 0.013.

Consider GGACTATGCG, for which the switch fluorescence ratio turned out to be 0.985 ± 0.032.

Regarding GGACTCCTAG, the switch fluorescence ratio worked out at 0.995 ± 0.028. For the sequence GGACTGCGGT, the switch fluorescence ratio turned out to be 0.979 ± 0.022. Consider GGACTGCTGG, for which the switch fluorescence ratio is 1.03 ± 0.033. For the sequence GGACTTGTTT, the switch fluorescence ratio amounted to 0.984 ± 0.022.

As to GGACTTTGGC, the switch fluorescence ratio worked out at 0.983 ± 0.042. As to GGACTTTTTG, the switch fluorescence ratio worked out at 0.953 ± 0.045.

In the case of GGAGAACGAT, the switch fluorescence ratio came to 1.03 ± 0.027. With GGAGAAGTCC the figure was 1.03 ± 0.093. With GGAGAAGTGG the figure was 0.976 ± 0.034. With GGAGAATGCC the figure was 1.04 ± 0.053; with GGAGAATGCG, 1.02 ± 0.013.

As to GGAGAATTTT, the switch fluorescence ratio is 1.04 ± 0.049. Turning to GGAGACTTGA, the switch fluorescence ratio was 0.986 ± 0.024. Take GGAGAGGAAT: the switch fluorescence ratio was 1.01 ± 0.044. In the case of GGAGAGGGAG, the switch fluorescence ratio stood at 0.9883 ± 0.0015.

Regarding GGAGAGGGTA, the switch fluorescence ratio was 1.01 ± 0.035. With GGAGATATCA the figure was 1.035 ± 0.0074; with GGAGATGCAG, 0.969 ± 0.046; with GGAGATGCTA, 0.9616 ± 0.0059. For GGAGATGTCA the value was 1.013 ± 0.0081; for GGAGATTGAT, 1 ± 0.021. For GGAGATTTTA the value was 1.04 ± 0.068; for GGAGCGAAGT, 1.16 ± 0.26. As for GGAGCGAGAG, the switch fluorescence ratio stood at 3.37 ± 0.28. For GGAGCGATGG the value was 3.31 ± 1.2; for GGAGCTGGGG, 1.04 ± 0.065. Take GGAGCTTGCA: the switch fluorescence ratio was 1.02 ± 0.023.

With GGAGGCAGTT, the switch fluorescence ratio amounted to 0.9738 ± 0.006.

GGAGGCATAT: the switch fluorescence ratio stood at 1.13 ± 0.039.

Turning to GGAGGCGGAG, the switch fluorescence ratio was 1.002 ± 0.0077.

For the sequence GGAGGCTGGT, the switch fluorescence ratio came to 1.018 ± 0.01.

For the sequence GGAGGGAGTT, the switch fluorescence ratio worked out at 1.03 ± 0.049.

GGAGGGCAAC: the switch fluorescence ratio amounted to 1.01 ± 0.028. GGAGGGCGTC: the switch fluorescence ratio turned out to be 0.952 ± 0.0048. For the sequence GGAGGGGAGC, the switch fluorescence ratio stood at 0.974 ± 0.056. For GGAGGGGGTA the value was 1.01 ± 0.016; for GGAGGGGGTG, 0.989 ± 0.044; for GGAGGGGTCA, 0.9744 ± 0.0097. For GGAGGGGTCG the value was 1.02 ± 0.033.

In the case of GGAGGGTGCG, the switch fluorescence ratio came out at 1.011 ± 0.0064. Regarding GGAGGGTTGG, the switch fluorescence ratio came to 0.998 ± 0.059. Turning to GGAGGGTTTG, the switch fluorescence ratio was found to be 0.992 ± 0.034. For GGAGGTACAC the value was 1.03 ± 0.037. For GGAGTAAATG the value was 1.01 ± 0.015; for GGAGTAAGAG, 1.11 ± 0.21. For GGAGTACCGG the value was 1.01 ± 0.049; for GGAGTCATGA, 0.982 ± 0.04; for GGAGTCGTCC, 1.01 ± 0.024. On to GGAGTCTAGG, for which the switch fluorescence ratio is 0.994 ± 0.031. For GGAGTGACGG the value was 0.9979 ± 0.0024; for GGAGTGAGGG, 0.985 ± 0.05. With GGAGTGTGGG the figure was 0.986 ± 0.019; with GGAGTGTGTG, 0.96 ± 0.044; with GGAGTTAGGG, 0.977 ± 0.011. For GGAGTTGTTG the value was 0.99 ± 0.009; for GGAGTTTCGT, 0.988 ± 0.023; for GGATAATAGT, 0.9916 ± 0.0082. Consider GGATAATGGC, for which the switch fluorescence ratio is 0.94 ± 0.059. As for GGATACGTTT, the switch fluorescence ratio is 0.994 ± 0.012. For the sequence GGATAGAGTG, the switch fluorescence ratio turned out to be 0.971 ± 0.052.

As to GGATAGGGGA, the switch fluorescence ratio was 1.01 ± 0.017.

As for GGATAGGGGT, the switch fluorescence ratio amounted to 1.05 ± 0.062. With GGATAGGGTG the figure was 1.06 ± 0.076; with GGATATAAGT, 1.01 ± 0.035.

Regarding GGATCAATGT, the switch fluorescence ratio was determined as 0.998 ± 0.02.

In the case of GGATCATTCG, the switch fluorescence ratio was determined as 1.02 ± 0.048. For the sequence GGATCATTTA, the switch fluorescence ratio is 1.03 ± 0.042. For GGATCCAGTA the value was 1.02 ± 0.045. For GGATCCATAC, the switch fluorescence ratio amounted to 1.01 ± 0.014. On to GGATCCGGGA, for which the switch fluorescence ratio is 1.0104 ± 2.5e-05. With GGATCCTGTT the figure was 1.01 ± 0.027; with GGATCGCGAG, 0.9797 ± 0.0074; with GGATCTTGGG, 1.0038 ± 0.00073. For GGATGAATGG the value was 1.03 ± 0.043; for GGATGAGGGT, 0.986 ± 0.018; for GGATGCAAGT, 0.998 ± 0.039. For GGATGCAGC the value was 0.992 ± 0.024; for GGATGCAGGG, 0.999 ± 0.012. For GGATGCGTG, the switch fluorescence ratio turned out to be 0.985 ± 0.059. With GGATGGATGA the figure was 1.07 ± 0.073; with GGATGGCATG, 0.979 ± 0.039; with GGATGGCGGA, 0.997 ± 0.024. With GGATGGGTTG the figure was 1.09 ± 0.19; with GGATGGTGCT, 0.948 ± 0.027. On to GGATGGTTCA, for which the switch fluorescence ratio is 1.05 ± 0.072. As for GGATGGTTTC, the switch fluorescence ratio was 1.01 ± 0.023. With GGATGTAGCG the figure was 0.985 ± 0.051; with GGATGTCAGG, 1 ± 0.045. On to GGATGTGAAG, for which the switch fluorescence ratio amounted to 0.9818 ± 0.0027.

In the case of GGATGTTATG, the switch fluorescence ratio turned out to be 1.016 ± 0.0078. With GGATTAAGCT, the switch fluorescence ratio turned out to be 1.015 ± 0.0043.

For GGATTAGCTG, the switch fluorescence ratio came out at 1.01 ± 0.049. With GGATTAGG, the switch fluorescence ratio was determined as 0.99 ± 0.025. GGATTAGGTT: the switch fluorescence ratio came out at 1.01 ± 0.011. On to GGATTATCTC, for which the switch fluorescence ratio came out at 1.015 ± 0.0044. On to GGATTATTAG, for which the switch fluorescence ratio stood at 0.965 ± 0.016.

With GGATTCAGCA, the switch fluorescence ratio was found to be 1.01 ± 0.022. For GGATTCATTT the value was 1.054 ± 0.0087; for GGATTCTTAG, 0.986 ± 0.049; for GGATTGAATC, 1 ± 0.015. With GGATTGAGGG, the switch fluorescence ratio was determined as 0.968 ± 0.021. Consider GGATTGCAAG, for which the switch fluorescence ratio is 0.998 ± 0.013. In the case of GGATTGCTCG, the switch fluorescence ratio came to 1.03 ± 0.029.

With GGATTGGATT, the switch fluorescence ratio was determined as 1 ± 0.022. As to GGATTGGCGT, the switch fluorescence ratio was determined as 1 ± 0.044. For GGATTGGTCC the value was 1.14 ± 0.16; for GGATTGGTTT, 0.983 ± 0.03; for GGATTGTCAG, 0.9847 ± 0.0024.

As to GGATTTGAAT, the switch fluorescence ratio was determined as 1.03 ± 0.031. Regarding GGATTTGGG, the switch fluorescence ratio worked out at 0.964 ± 0.014. For GGATTTTAAA the value was 1 ± 0.022; for GGATTTTTAG, 0.99134 ± 0.00052. With GGATTTTTTA the figure was 1.006 ± 1.6e-05; with GGCAATATAG, 1.141 ± 0.006. With GGCAATGAAA the figure was 0.999 ± 0.019.
